This is an account of results in PMC11182015, “Cytosolic RNA binding of the mitochondrial TCA cycle enzyme malate dehydrogenase”.

For this series, the target named is T1, MDH2 preprotein (malate dehydrogenase 2, mitochondrial), with N-terminal MTS (Homo sapiens, UniProt P40926 1-338).
T1 sequence: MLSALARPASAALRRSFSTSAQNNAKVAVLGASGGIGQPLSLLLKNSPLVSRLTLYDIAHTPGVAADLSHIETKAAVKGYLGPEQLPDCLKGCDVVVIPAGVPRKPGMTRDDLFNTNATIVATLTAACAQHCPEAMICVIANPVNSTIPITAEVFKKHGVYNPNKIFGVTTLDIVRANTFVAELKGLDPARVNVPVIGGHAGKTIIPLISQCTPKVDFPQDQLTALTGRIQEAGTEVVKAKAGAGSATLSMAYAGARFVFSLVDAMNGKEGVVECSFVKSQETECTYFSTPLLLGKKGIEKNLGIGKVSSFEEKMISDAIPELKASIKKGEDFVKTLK
Description: EMSA; RNA 10 nM; EMSA: 10 mM Tris-HCl pH 7.5, 150 mM NaCl, 20% glycerol, 0.5 mM DTT, 5 mM MgCl2, 0.01 ug/uL BSA, 25 C 20 min; 10 nM Cy5-RNA; native 4-15% Tris-glycine gel. The settings on record: protein: recombinant; tags: C-terminal Strep-II; label: Cy5. (Mobility shift assays separate free from complexed probe on a gel.)

Turning to AUAUUUAGCUCAGGCCCGUGGCGCC (ssRNA) [RPS23 5'-UTR control probe], the Kd (in general, the concentration at which binding is half-saturated) came out at 1500 nM.
